Results published in patent US20240239894A1 (AstraZeneca / MedImmune, published 2024).
Where two headings read alike, the source gives them in different places.

How the values were obtained:
[1] = molecular target: T1, Human B7-H4-Fc (Human B7H4 ECD, Fc_6His) (human); test: HTRF binding, human IgG1-TM
T1 construct: also called FcHis6 tagged human B7-H4
T1 sequence (Q7Z7D3 whole entry, looked up): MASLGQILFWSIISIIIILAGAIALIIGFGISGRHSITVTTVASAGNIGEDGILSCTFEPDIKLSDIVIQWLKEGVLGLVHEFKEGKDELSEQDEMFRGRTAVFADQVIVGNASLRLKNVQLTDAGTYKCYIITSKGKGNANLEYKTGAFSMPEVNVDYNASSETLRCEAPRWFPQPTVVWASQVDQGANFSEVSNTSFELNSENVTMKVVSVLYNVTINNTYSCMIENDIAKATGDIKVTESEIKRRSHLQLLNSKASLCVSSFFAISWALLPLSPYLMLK

[2] = molecular target: T2, Cyno B7-H4-Fc (Cyno B7H4 ECD, FcTM_6His) (cynomolgus monkey); test: HTRF binding, human IgG1-TM
T2 construct: extracellular domain; also called cynomolgus B7-H4-Fc

[3] = molecular target: T3, Murine B7-H4-Fc (Mouse B7H4 ECD, Fc_6His) (mouse, UniProt Q7TSP5 25-257); test: HTRF binding, human IgG1-TM
T3 construct: extracellular domain; also called mouse B7-H4-Fc; FcHis6 tagged murine B7-H4
T3 sequence (Q7TSP5 whole entry, looked up): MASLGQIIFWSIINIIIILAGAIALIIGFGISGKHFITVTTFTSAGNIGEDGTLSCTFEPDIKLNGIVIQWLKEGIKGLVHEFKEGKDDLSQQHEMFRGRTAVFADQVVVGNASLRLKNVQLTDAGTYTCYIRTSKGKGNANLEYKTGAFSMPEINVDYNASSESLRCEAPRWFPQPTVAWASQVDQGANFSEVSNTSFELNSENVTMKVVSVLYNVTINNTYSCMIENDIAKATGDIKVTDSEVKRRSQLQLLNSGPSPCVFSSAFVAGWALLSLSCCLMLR

[4] = molecular target: T4, Human B7-H4 ECD-Flag-His10 (monomeric) (human, UniProt Q7Z7D3 25-259); test: Octet BLI, hIgG1-TM on Protein G (n = 4-7)
T4 construct: Minimally biotinylated for KinExA; also called hB7H4-ECD-Flag-His10; B7-H4-FLAG
T4 sequence: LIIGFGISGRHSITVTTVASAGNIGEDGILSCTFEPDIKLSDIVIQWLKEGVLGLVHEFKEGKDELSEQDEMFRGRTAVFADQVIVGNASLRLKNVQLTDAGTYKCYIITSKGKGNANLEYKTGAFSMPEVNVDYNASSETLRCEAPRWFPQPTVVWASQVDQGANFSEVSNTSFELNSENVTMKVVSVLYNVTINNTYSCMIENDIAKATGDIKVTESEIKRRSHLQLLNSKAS

[5] = molecular target: T5, Murine B7-H4 ECD-Flag-His10 (monomeric) (mouse, UniProt Q7TSP5 25-257); test: Octet BLI, hIgG1-TM on Protein G (n = 4-7)
T5 construct: extracellular domain; also called FlagHis10 murine B7-H4
T5 sequence (looked up): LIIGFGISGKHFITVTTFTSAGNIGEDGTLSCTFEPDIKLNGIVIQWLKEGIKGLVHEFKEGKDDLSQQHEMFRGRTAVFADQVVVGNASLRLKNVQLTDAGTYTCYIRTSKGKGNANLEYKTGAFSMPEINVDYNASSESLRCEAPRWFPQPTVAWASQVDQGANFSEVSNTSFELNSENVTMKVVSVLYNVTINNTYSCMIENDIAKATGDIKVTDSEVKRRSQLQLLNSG

[6] = molecular target: T6, Human B7H4 ECD (SV), splice variant, 10His_FLAG (human); test: Octet BLI, hIgG1-TM on Protein G (n = 4-7)
T6 construct: also called B7-H4-SV

[7] = molecular target: T5, Murine B7-H4 ECD-Flag-His10 (monomeric); test: Octet BLI; end of the range tied to the member by Table 9
[8] = molecular target: T4, Human B7-H4 ECD-Flag-His10 (monomeric); test: Octet; summary table, rounded from Table 9 (hIgG1-TM)
[9] = molecular target: T1, Human B7-H4-Fc (Human B7H4 ECD, Fc_6His); test: ELISA, absorbance 450 nm; x axis printed as antigen concentration (µg/ml)
[10] = molecular target: T4, Human B7-H4 ECD-Flag-His10 (monomeric); test: as above
[11] = molecular target: T4, Human B7-H4 ECD-Flag-His10 (monomeric); test: Octet BLI; end of the range tied to the member by Table 9
[12] = molecular target: T6, Human B7H4 ECD (SV), splice variant, …; test: as above
[13] = molecular target: T4, Human B7-H4 ECD-Flag-His10 (monomeric); test: ELISA, absorbance 450 nm; x axis printed as antigen concentration (µg/ml); remark: listed apart in the source

B1: ZY0EQD-E02 human IgG1-TM (antibody, V domains shown)
VH: QVQLQQWGAGLLKPSETLSLTCAVYGGSFSGYYWNWIRQPPGKGLEWIGEINHSGSTSYNPSLKSRVTISVDTSKNQFSLKLSSVTAADTAVYYCARVLYNWNVDSWGQGTLVTVSS
VL: DIQMTQSPSSLSASVGDRVTITCRASQDIRNDVGWYQQKPGKAPKRLIYAASRLQSGVPSRFSGSGSGTEFTLTISSLQPEDFATYYCLQHNSYPRTFGQGTKVEIK
- EC50 [1]: 0.33 nM
- Max [1]: 1270
- EC50 [2]: 0.28 nM
- Max [2]: 1100
- EC50 [3]: 1.44 nM
- Max [3]: 224
- Kd [4]: 14.4 nM
- koff [4]: 0.00278 s⁻¹
- kon [4]: 193000 M⁻¹ s⁻¹
- Kd [5]: 621 nM
- koff [5]: 0.126 s⁻¹
- kon [5]: 203000 M⁻¹ s⁻¹
- Kd [6]: 801 nM
- koff [6]: 0.00269 s⁻¹
- kon [6]: 3360 M⁻¹ s⁻¹
- Kd [7]: 10 to 600 nM
- Kd [8]: 14 nM
- EC50 (read off the curve) [9]: ~0.09 µg/mL
- EC50 (read off the curve) [10]: ~0.08 µg/mL

B2: ZY0EPQ-E02 human IgG1-TM (antibody, V domains shown)
VH: QVQLQQWGAGLLKPSETLSLTCAVYGGSFSGYYWNWIRQPPGKGLEWIGEINHSGSTNYNPSLKSRVTILVDTSKNQFSLKLSSVTAADTAVYYCARNLYNWNLDSWGQGTLVTVSS
VL: DIQMTQSPSSLSASVGDRVTITCRASQGIRNDLGWYQQKPGRAPKRLIYVASSLQSGVPSRFSGSGSGTEFTLTISSLQPEDFATYYCLQHNSYPRTFGQGTKVEIK
- EC50 [1]: 0.41 nM
- Max [1]: 1090
- EC50 [2]: 0.35 nM
- Max [2]: 934
- EC50 [3]: 1.76 nM
- Max [3]: 256
- Kd [4]: 25.7 nM
- koff [4]: 0.00182 s⁻¹
- kon [4]: 70900 M⁻¹ s⁻¹
- Kd [5]: 396 nM
- koff [5]: 0.0304 s⁻¹
- kon [5]: 76700 M⁻¹ s⁻¹
- Kd [6]: 1660 nM
- koff [6]: 0.00229 s⁻¹
- kon [6]: 1380 M⁻¹ s⁻¹
- Kd [11]: 10 to 25 nM
- Kd [12]: 200 to 1600 nM
- Kd [8]: 26 nM
- EC50 (read off the curve) [13]: ~0.3 µg/mL

B3: ZY0EP0-C07 human IgG1-TM (antibody, V domains shown)
VH: QVQLVESGGVLVKPGGSLRLSCAASGFTLSDYYMSWIRQAPGMGLEWVSYISSSGSTIYYTDSVKGRFTISRDSAKNSLYLQMNSLRAEDTAVYYCARDGVGFDYWGQGTLVTVSS
VL: EIVLTQSPGTLSLFPGERATLSCRASQSVSSSYLAWYQQKPGQSPRLLIYAASSRATGIPDRFSGSGSGTDFTLTISRLEPEDFAVYYCQQYGSSPLYTFGQGTKLEIK
notes: also called ZY0EPO-C07
- EC50 [1]: 0.31 nM
- Max [1]: 1210
- EC50 [2]: 0.39 nM
- Max [2]: 890
- EC50 [3]: 0.2 nM
- Max [3]: 1250
- Kd [4]: 9.4 nM
- koff [4]: 0.000397 s⁻¹
- kon [4]: 41600 M⁻¹ s⁻¹
- Kd [5]: 11 nM
- koff [5]: 0.000524 s⁻¹
- kon [5]: 43000 M⁻¹ s⁻¹
- Kd [11]: 10 to 25 nM
- Kd [7]: 10 to 600 nM
- Kd [8]: 9 nM

B4: ZY0EOB-F05 human IgG1-TM (antibody, V domains shown)
VH: QVQLQESGPGLVKPSQTLSLTCTVSDGSISSGGYYWSWIRQHPGKGLEWIGNIYYSGSTYYNPSLKSRVTISVDTSKNQFSLKLNSVTAADTAVYYCATEKALATVTPSGYENYYTVDVWGQGTTVTVSS
VL: DIQLTQSPSFLSASVGDRVTITCWASQGISSYLAWYQQKPGKAPKLLIYAASTLQSGVPSRFSGSGSGTEFTLTISSLQPEDFATYYCQHLNSYPLTFGGGTKVEIK
- EC50 [1]: 0.15 nM
- Max [1]: 1870
- EC50 [2]: 0.15 nM
- Max [2]: 1480
- EC50 [3]: 0.19 nM
- Max [3]: 1340
- Kd [4]: 13.4 nM
- koff [4]: 0.000355 s⁻¹
- kon [4]: 26500 M⁻¹ s⁻¹
- Kd [5]: 25 nM
- koff [5]: 0.000476 s⁻¹
- kon [5]: 18700 M⁻¹ s⁻¹
- Kd [6]: 174 nM
- koff [6]: 0.000584 s⁻¹
- kon [6]: 3350 M⁻¹ s⁻¹
- Kd [12]: 200 to 1600 nM
- Kd [8]: 13 nM
